Measurements taken from patent US12630850B2, “Enzymatic break down of chlorogenic acid in sunflower-containing products” (Chapman University, priority 2022, dated 2026).

Assays:
[1] = Circular dichroism thermal and pH stability; type: physicochemical
Experimental: Circular dichroism, dynamic light scattering and mass spectrometry. Circular dichroism (CD) spectra were taken on a Jasco J-1500 CD spectrophotometer. CGA esterase (0.2 mg mL^−1) was buffered in a solution of approximately 5 mM HEPES, pH 8.0. Spectra were recorded at 4° C. using the following settings: 100 nm min^−1 scan rate, 0.2 nm data pitch, 1.0 nm bandwidth, and 2 s integration time. Five acquisitions were averaged per experimental sample. […] The Tm was estimated by fitting a Boltzmann sigmoidal function to the denaturation curve. For CD spectra that were run at different pH, a concentrated CGA esterase stock solution was diluted to either 0.2 mg mL^−1 or 0.1 mg mL^−1 into solutions of 10 mM buffer at the pH indicated.

[2] = CGA esterase activity in the sunflower meal supernatant and pellet (HPLC); type: biochemical; settings: for Pellet mg CA/g meal / Pellet mg CGA/g meal / Supernatant mg CA/g meal / Supernatant mg CGA/g meal: enzyme present
Excerpt: Sunflower meal and sunflower protein treatment with chlorogenic acid esterase. Sunflower seeds were ground using a KitchenAid coffee grinder in two 30 s increments and sieved through a 500 μm filter to make SFM. Two defatting methods were used: cold press and hexane extraction. To make cold pressed SFM, ground seeds were pressed in a Carver Hydraulic Unit Model 3912 3852-0 five times to a pressure of 9,000-10,000 psi. For hexane extracted SFM, fat was removed from ground seeds using a Soxhlet apparatus in 250 mL hexane for 18 h and subsequently dried using a Fischer Scientific Isotemp Oven Model 516G at 45° C. for 3 h. Cold pressed, hexane extracted, and undefatted SFM were then sieved through a 500 μm filter.
Chlorogenic acid esterase activity in the sunflower meal supernatant and pellet. SFM (1 g) that was cold pressed, hexane extracted, or undefatted was buffered in 10 mL of 50 mM HEPES, pH 8.0. CGA esterase was added to a final concentration of 0.756 μM (0.02 mg mL^−1). Untreated samples received a solution of 50 mM HEPES, pH 8.0 instead of CGA esterase. Samples treated with CGA esterase were allowed to sit for 10 min and subsequently centrifuged at 10,000 rpm for 10 min. The supernatant was filtered through a 0.2 μm filter and loaded onto an HPLC while the pellet was lyophilized for 20 h. After lyophilization, 10 mL of 70% ethanol was then added to the dried pellet for 1 h to extract CGA. The pellet was subsequently centrifuged at 10,000 rpm for 10 min. The supernatant was then filtered through a 0.2 μm filter and loaded onto an HPLC.
HPLC quantification of CGA and CA in sunflower meal and protein isolates. All solutions were diluted ten-fold in 0.1% formic acid in HPLC-grade water before analysis. Quantification of CGA and CA concentration was performed using an Agilent 1260 series HPLC instrument (Agilent Technologies) equipped with a quaternary pump, an automated sample injector, a diode array detector, and a 4.6 mm×150 mm Luna C18(2) column with a 5 μm particle size and 100 Å pore size (Phenomenex). The injection volume was 20 μL. To elute analytes, mobile phases composed of 0.1% formic acid in HPLC-grade water (A) and 0.1% formic acid in HPLC-grade acetonitrile (B) were used in a linear gradient. The gradient is as follows: 0 to 13% B in 1 min, up to 27% B at 8 min, up to 100% B at 8.5 min, isocratic at 100% B to 9.5 min, 100% B returned to 0% B at 9.6 min with 3 min post-time. The concentrations of CGA and CA were calculated from peak integration data based on 10-point standard curve that spanned a concentration range of 0 to 0.1 mg mL^−1.

[3] = HPLC quantification of CGA in sunflower flour cookies; type: biochemical; settings: SFF cookies; 0.09 mg/g flour, pre- and direct treatment
Excerpt: Cookie formulations and baking conditions. The cookie dough formulation consisted of baking soda (2.2 g), salt (2.2 g), whole egg (46.8 g), maple syrup (76.3 g), vanilla extract (2.2 g), flour (145.8 g), and butter (87.5 g). CGA esterase treatments in SFF, utilized almond butter instead of SFB. The wet (sunflower or almond butter, maple syrup, eggs, and vanilla extract) and dry (flour, baking soda, and salt) ingredients were mixed separately and subsequently combined and mixed for 75 s with an electric hand mixer. The dough was rolled out and cut to the following dimensions: 6 mm thickness and 40 mm diameter. Cookies were baked for 7 min in a convection oven preheated to 149° C. (300° F.) and allowed to cool at room temperature for 10 min before further analysis.
Preparation of sunflower flour cookies with CGA esterase. […]
High-performance liquid chromatography (HPLC) quantification of phenolic content in sunflower cookies. […] The extract was filtered through 0.20 μm syringe filters and analyzed with an Agilent 1260 Infinity II system (Agilent Technologies) equipped with a quaternary pump (G7111B), vial sampler (G7129A), and diode array detector (HS G7117C). […] CGA and caffeic acid concentrations were detected at 320 nm and quantified using a standard curve between 0.00-0.10 mg ml^−1 CGA (y=172287x, R^2=0.994) and caffeic acid (y=248557x, R^2=0.967).

B1: CGA esterase: CGA esterase from L. helveticus (Genbank ID: WP_025283955.1, Uniprot ID: U6F2K7), expressed in Escherichia coli; the dimer is the active form (protein, listed as Lactobacillus helveticus)
chain: MSRITIERDGLTLVGDREEPFGEIYDMAIIMHGFAANRNTDLLRQIADDLRDENVASVRFDFNGHGESDGKFEDMTVCNEIADGKAILDYVRTDPHVRDIFLVGHSQGGVVASMLAGLYPDVVKKVVLLAPAAQLKDDALRSNTQGATYDPNHIPDWPLVGNKLGMKLGGFYLRTAQVLPIYEVSQCFTRPVSVIAGTNDQWDPKYAKKYDEVYENSELHMIPNADHRFSGGYKDMAADLTAQFLKPAF
- Tm ([1]; CD signal at 222 nm, thermal denaturation): 65 °C
- pH range over which the protein is stable (CD spectra) ([1]; room temperature (21° C.)): 6.0-9.0 pH
- Conversion of CGA into caffeic and quinic acid ([2]; SFM, in 10 min): ~100%
- Pellet mg CA/g meal ([2]; cold pressed SFM): 0.81 ± 0.11 mg CA/g meal
- Pellet mg CGA/g meal ([2]; cold pressed SFM): 0.02 ± 0.00 mg CGA/g meal
- Supernatant mg CA/g meal ([2]; cold pressed SFM): 3.33 ± 0.15 mg CA/g meal
- Supernatant mg CGA/g meal ([2]; cold pressed SFM): 0.00 ± 0.00 mg CGA/g meal
- CGA cleavage ([2]; defatted samples): > 99%
- Pellet mg CA/g meal ([2]; hexane extracted SFM): 1.55 ± 0.14 mg CA/g meal
- Pellet mg CGA/g meal ([2]; hexane extracted SFM): 0.03 ± 0.00 mg CGA/g meal
- Supernatant mg CA/g meal ([2]; hexane extracted SFM): 3.77 ± 0.10 mg CA/g meal
- Supernatant mg CGA/g meal ([2]; hexane extracted SFM): 0.00 ± 0.00 mg CGA/g meal
- Pellet mg CA/g meal ([2]; undefatted SFM): 0.34 ± 0.03 mg CA/g meal
- Pellet mg CGA/g meal ([2]; undefatted SFM): 0.11 ± 0.01 mg CGA/g meal
- Supernatant mg CA/g meal ([2]; undefatted SFM): 1.52 ± 0.08 mg CA/g meal
- Supernatant mg CGA/g meal ([2]; undefatted SFM): 0.00 ± 0.00 mg CGA/g meal
- CGA cleavage ([2]; undefatted samples): ca. 96%
- Effect of enzyme addition on CGA [3]: nearly complete elimination of CGA
